Data from US7157224B2, “Screening and use of agents which block or activate intein splicing utilizing natural or homologous exteins” (priority 1992, dated 2007).

What follows are substances tested against T1, Mtu DnaB intein (IVPS) (Mycobacterium tuberculosis, UniProt P9WMR3). Details: E. coli, peptide in chicken α-spectrin loop on pEA825 (wild type Mtu dnaB), 37° C., 1 mM IPTG for 3 hours, crude cell extracts, anti-T7 tag immuno-staining.
T1 sequence (P9WMR3 whole entry, looked up): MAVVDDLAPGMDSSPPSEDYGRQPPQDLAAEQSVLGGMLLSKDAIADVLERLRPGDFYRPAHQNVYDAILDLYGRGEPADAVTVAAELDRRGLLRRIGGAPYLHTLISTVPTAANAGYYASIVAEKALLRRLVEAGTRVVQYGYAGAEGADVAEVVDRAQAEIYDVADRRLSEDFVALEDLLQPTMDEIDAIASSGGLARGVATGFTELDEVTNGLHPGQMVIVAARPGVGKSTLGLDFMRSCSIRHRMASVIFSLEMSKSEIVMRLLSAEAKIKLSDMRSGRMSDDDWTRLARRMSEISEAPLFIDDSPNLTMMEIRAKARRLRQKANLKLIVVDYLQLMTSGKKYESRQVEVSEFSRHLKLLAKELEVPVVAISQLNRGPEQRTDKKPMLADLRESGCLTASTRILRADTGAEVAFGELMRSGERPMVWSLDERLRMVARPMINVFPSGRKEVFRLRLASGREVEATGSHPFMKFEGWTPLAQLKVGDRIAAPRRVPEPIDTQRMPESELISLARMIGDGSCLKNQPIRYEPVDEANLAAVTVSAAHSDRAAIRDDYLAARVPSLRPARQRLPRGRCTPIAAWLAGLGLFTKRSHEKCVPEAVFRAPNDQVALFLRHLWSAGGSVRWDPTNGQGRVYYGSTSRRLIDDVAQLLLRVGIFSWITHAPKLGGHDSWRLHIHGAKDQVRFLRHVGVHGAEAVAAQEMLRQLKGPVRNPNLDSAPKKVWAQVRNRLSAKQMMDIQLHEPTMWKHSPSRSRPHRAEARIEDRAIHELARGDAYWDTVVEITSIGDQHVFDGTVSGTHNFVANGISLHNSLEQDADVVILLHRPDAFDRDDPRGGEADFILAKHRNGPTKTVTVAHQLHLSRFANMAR
Format: cell-based

Row | Substance | protein splicing of the Mtu DnaB intein (detection of Mtu DnaB protein splicing products)
1 | DLPMVEE [pEA818rev, reference compound] | occurred as efficiently as with the pMtu DnaB clone
2 | HPNPHPTLSGQR [pEA818] | selected for inhibition of splicing
3 | PTARTYE [pEA816] | selected for inhibition of splicing
4 | PTRPTAPPLNFS [pEA817] | selected for inhibition of splicing
5 | RPAPRPL [pEA815] | selected for inhibition of splicing
6 | TVQSTKR [pEA814] | selected for inhibition of splicing
